The target of the assay is ALK 001P. The assay can be described thus: flow cytometry; CAR-T cells incubated with ALK 001P, detected with PE anti-His tag antibody and APC anti-CD3. Background: Flow cytometry measures light scatter and fluorescence of single cells or particles in a stream.
Sequence of ALK 001P (chain, as listed by the source limits assumed): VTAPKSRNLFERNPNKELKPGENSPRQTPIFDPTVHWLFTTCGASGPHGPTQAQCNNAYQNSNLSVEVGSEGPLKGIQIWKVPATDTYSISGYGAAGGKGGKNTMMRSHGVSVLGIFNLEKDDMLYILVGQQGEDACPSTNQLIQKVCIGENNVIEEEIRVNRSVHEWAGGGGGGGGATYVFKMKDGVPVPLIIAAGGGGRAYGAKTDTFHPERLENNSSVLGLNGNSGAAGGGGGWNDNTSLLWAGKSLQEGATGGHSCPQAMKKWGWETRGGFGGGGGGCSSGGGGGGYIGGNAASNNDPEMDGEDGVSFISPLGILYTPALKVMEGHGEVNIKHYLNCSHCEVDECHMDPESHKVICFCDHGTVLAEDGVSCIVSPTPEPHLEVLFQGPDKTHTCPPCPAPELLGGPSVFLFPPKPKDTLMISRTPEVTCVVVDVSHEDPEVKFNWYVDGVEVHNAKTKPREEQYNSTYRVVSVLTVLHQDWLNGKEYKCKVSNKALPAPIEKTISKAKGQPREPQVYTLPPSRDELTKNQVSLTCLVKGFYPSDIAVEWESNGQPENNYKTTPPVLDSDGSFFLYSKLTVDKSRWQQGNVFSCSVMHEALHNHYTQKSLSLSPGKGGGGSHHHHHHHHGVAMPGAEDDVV

B1: CAR 021 (FAM150BTr-28z dCH2CH3) (protein)
chain: AEAAGLGPSPEQRVEIVPRDLRMKDKFLKHLTGPLYFSPKCSKHFHRLYHNTRDCTIPAYYKRCARLLTRLAVSPVCMEDKQEPKSCDKTHTCPPCDPAEPKSPDKTHTCPFWVLVVVGGVLACYSLLVTVAFIIFWVRSKRSRLLHSDYMNMTPRRPGPTRKHYQPYAPPRDFAAYRSRVKFSRSADAPAYQQGQNQLYNELNLGRREEYDVLDKRRGRDPEMGGKPRRKNPQEGLYNELQKDKMAEAYSEIGMKGERRRGKGHDGLYQGLSTATKDTYDALHMQALPPR
In the case of B1, the Expression rate (% of cells positive for ALK 001P staining) is 24.1%.

The record behind these values is US20220249561A1.
